Reference: the supplement of paper PMC11246515
± gives the standard deviation of the averaged measurements.

Test: total protein half-life in vivo (active degradation + dilution); higher = more stable protein
[1] = E. coli NCM3722 delta-clpP delta-lon delta-hslV, growth: N-lim chemostat, doubling time 6 h
[2] = E. coli NCM3722 delta-clpP, growth: N-lim chemostat, doubling time 6 h
[3] = E. coli NCM3722 delta-hslV, growth: N-lim chemostat, doubling time 6 h
[4] = E. coli NCM3722 delta-smpB, growth: N-lim chemostat, doubling time 6 h
[5] = wild type E. coli NCM3722, growth: C-lim chemostat, doubling time 3 h
[6] = wild type E. coli NCM3722, growth: C-lim chemostat, doubling time 6 h
[7] = wild type E. coli NCM3722, growth: C-lim chemostat, doubling time 12 h
[8] = wild type E. coli NCM3722, growth: N-lim chemostat, doubling time 6 h
[9] = wild type E. coli NCM3722, growth: N-lim chemostat, doubling time 12 h
[10] = wild type E. coli NCM3722, growth: P-lim chemostat, doubling time 6 h
[11] = wild type E. coli NCM3722, growth: P-lim chemostat, doubling time 12 h
[12] = E. coli NCM3722 delta-lon, growth: N-lim chemostat, doubling time 6 h

MDYVCSVVFICQSFDLIINRRVISFKKNSLFIVSDKIRRELPVCPSKLRIVDIDKKTCLSFFIDVNNELPGKFTLDKNGYIAEEEPPLSLVFSLFEGIKIADSHSLWLKERLCISLLAMFKKRESVNSFILTNINTFTCKITGIISFNIERQWHLKDIAELIYTSESLIKKRLRDEGTSFTEILRDTRMRYAKKLITSNSYSINVVAQKCGYNSTSYFICAFKDYYGVTPSHYFEKIIGVTDGINKTID
total protein half-life in vivo [1]: 5.39 ± 1.1 h
total protein half-life in vivo [2]: 3.62 ± 0.73 h
total protein half-life in vivo [3]: 3.65 ± 0.5 h
total protein half-life in vivo [4]: 3.18 ± 0.42 h
total protein half-life in vivo [5]: 2.27 ± 0.2 h
total protein half-life in vivo [6]: 4.11 ± 0.32 h
total protein half-life in vivo [7]: 6.14 h
total protein half-life in vivo [8]: 2.95 h
total protein half-life in vivo [9]: 5.67 ± 0.64 h
total protein half-life in vivo [10]: 3.89 ± 0.38 h
total protein half-life in vivo [11]: 7.61 ± 2.4 h

MEFAFYICGLIAILATLRVITHTNPVHALLYLIISLLAISGVFFSLGAYFAGALEIIVYAGAIMVLFVFVVMMLNLGGSEIEQERQWLKPQVWIGPAILSAIMLVVIVYAILGVNDQGIDGTPISAKAVGITLFGPYVLAVELASMLLLAGLVVAFHVGREERAGEVLSNRKDDSAKRKTEEHA [P0AFE0]
total protein half-life in vivo [3]: 4.21 h
total protein half-life in vivo [4]: 6.02 h
total protein half-life in vivo [6]: 6.7 h
total protein half-life in vivo [8]: 6.07 h
total protein half-life in vivo [9]: 11.5 h
total protein half-life in vivo [10]: 6.02 h
total protein half-life in vivo [11]: 13.8 ± 2.9 h

MEFFKKTALAALVMGFSGAALALPNITILATGGTIAGGGDSATKSNYTVGKVGVENLVNAVPQLKDIANVKGEQVVNIGSQDMNDNVWLTLAKKINTDCDKTDGFVITHGTDTMEETAYFLDLTVKCDKPVVMVGAMRPSTSMSADGPFNLYNAVVTAADKASANRGVLVVMNDTVLDGRDVTKTNTTDVATFKSVNYGPLGYIHNGKIDYQRTPARKHTSDTPFDVSKLNELPKVGIVYNYANASDLPAKALVDAGYDGIVSAGVGNGNLYKSVFDTLATAAKTGTAVVRSSRVPTGATTQDAEVDDAKYGFVASGTLNPQKARVLLQLALTQTKDPQQIQQIFNQY
total protein half-life in vivo [2]: 5.6 ± 1.2 h
total protein half-life in vivo [3]: 6.41 ± 0.082 h
total protein half-life in vivo [12]: 5.53 ± 0.3 h
total protein half-life in vivo [4]: 6.23 ± 0.81 h
total protein half-life in vivo [6]: 5.38 ± 0.38 h
total protein half-life in vivo [7]: > 16 h
total protein half-life in vivo [8]: 6.03 ± 0.47 h
total protein half-life in vivo [9]: 12.3 ± 0.7 h
total protein half-life in vivo [10]: 6.54 ± 0.46 h
total protein half-life in vivo [11]: 13 ± 0.46 h

MEHISTTTLIIILIIMVVISAYFSGSETGMMTLNRYRLRHMAKQGNRSAKRVEKLLRKPDRLISLVLIGNNLVNILASALGTIVGMRLYGDAGVAIATGVLTFVVLVFAEVLPKTIAALYPEKVAYPSSFLLAPLQILMMPLVWLLNAITRMLMRMMGIKTDIVVSGSLSKEELRTIVHESRSQISRRNQDMLLSVLDLEKMTVDDIMVPRSEIIGIDINDDWKSILRQLSHSPHGRIVLYRDSLDDAISMLRVREAWRLMSEKKEFTKETMLRAADEIYFVPEGTPLSTQLVKFQRNKKKVGLVVNEYGDIQGLVTVEDILEEIVGDFTTSMSPTLAEEVTPQNDGSVIIDGTANVREINKAFNWHLPEDDARTVNGVILEALEEIPVAGTRVRIGEYDIDILDVQDNMIKQVKVFPVKPLRESVAE
total protein half-life in vivo [1]: 6.45 ± 0.94 h
total protein half-life in vivo [2]: 6.26 ± 0.14 h
total protein half-life in vivo [3]: 6.04 ± 0.47 h
total protein half-life in vivo [4]: 5.75 ± 0.47 h
total protein half-life in vivo [5]: 3.02 ± 0.34 h
total protein half-life in vivo [6]: 6.47 ± 1.1 h
total protein half-life in vivo [7]: 9.51 ± 2.4 h
total protein half-life in vivo [8]: 6.56 ± 0.41 h
total protein half-life in vivo [9]: 11.6 ± 1 h
total protein half-life in vivo [10]: 6 ± 0.074 h
total protein half-life in vivo [11]: 10.9 ± 1 h

MEISFTRVALLAAALFFVGCDQKPQPAKTHATEVTVLEGKTMGTFWRASIPGIDAKRSAELKEKIQTQLDADDQLLSTYKKDSALMRFNDSQSLSPWPVSEAMADIVTTSLRIGAKTDGAMDITVGPLVNLWGFGPEQQPVQIPSQEQIDAMKAKTGLQHLTVINQSHQQYLQKDLPDLYVDLSTVGEGYAADHLARLMEQEGISRYLVSVGGALNSRGMNGEGLPWRVAIQKPTDKENAVQAVVDINGHGISTSGSYRNYYELDGKRLSHVIDPQTGRPIEHNLVSVTVIAPTALEADAWDTGLMVLGPEKAKEVVRREGLAVYMITKEGDSFKTWMSPQFKSFLVSEKN [P0AB85]
total protein half-life in vivo [1]: 6.34 ± 0.12 h
total protein half-life in vivo [2]: 6.53 ± 0.012 h
total protein half-life in vivo [3]: 5.8 ± 0.66 h
total protein half-life in vivo [12]: 6.9 ± 0.33 h
total protein half-life in vivo [4]: 5.97 ± 0.26 h
total protein half-life in vivo [5]: 2.9 ± 0.21 h
total protein half-life in vivo [6]: 6.95 ± 0.84 h
total protein half-life in vivo [7]: 11.9 ± 0.74 h
total protein half-life in vivo [8]: 6.29 ± 0.19 h
total protein half-life in vivo [9]: 12.3 ± 1.8 h
total protein half-life in vivo [10]: 6.3 ± 1.1 h
total protein half-life in vivo [11]: 13.4 ± 0.18 h

MEKDYLRISSTVLVSLLFGLALVLVNSWFNQPGVEEVVPRSTYLMVMIALFFIDTVAFIFMQLYFIYDRRQFSNCVLSLAFLSCLIYFVITVIIIQQIIEERLTSSVVQNDIAIYYLFRQMSLCILIFLALVNKVSENTKQRNLFSKKMTLCISLFFVFGGPIVAHILSSHYESYNLHIAELTNENGQVVWKASYVTIMIFMWLTLLSVNLYFNGLRYDIWNGVTVIAFCAVLYNISLLFMSRYSVSTWYISRTIEVVSKLTVMVIFMCHIFSALRVTKNIAHRDPLTNIFNRNYFFNELTVQSASAQKTPYCVMIMDIDHFKKVNDTWGHPVGDQVIKTVVNIIGKSIRPDDLLARVGGEEFGVLLTDIDTERAKALAERIRENVERLTGDNPEYAIPQKVTISIGAVVTQENALNPNEIYRLADNALYEAKETGRNKVVVRDVVNFCESP
total protein half-life in vivo [5]: 2.9 h

MEKEQLIEIANTIMPFGKYKGRRLIDLPEEYLLWFARKDEFPAGKLGELMQITLLIKTEGLTQLVQPLKRPL [P0AD40]
total protein half-life in vivo [1]: 6.16 ± 0.29 h
total protein half-life in vivo [6]: 5.09 h
total protein half-life in vivo [7]: 6.67 h
total protein half-life in vivo [10]: 3.3 h
total protein half-life in vivo [11]: 8.7 ± 2.7 h

MEKGTVKWFNNAKGFGFICPEGGGEDIFAHYSTIQMDGYRTLKAGQSVQFDVHQGPKGNHASVIVPVEVEAAVA [P0A968]
total protein half-life in vivo [1]: 2.08 h
total protein half-life in vivo [2]: 1.11 ± 0.089 h
total protein half-life in vivo [3]: 0.144 h
total protein half-life in vivo [5]: 0.333 ± 0.022 h
total protein half-life in vivo [6]: 0.386 h
total protein half-life in vivo [7]: 0.224 h

MEKKHIYLFCSAGMSTSLLVSKMRAQAEKYEVPVIIEAFPETLAGEKGQNADVVLLGPQIAYMLPEIQRLLPNKPVEVIDSLLYGKVDGLGVLKAAVAAIKKAAAN
total protein half-life in vivo [1]: 4.43 ± 0.066 h
total protein half-life in vivo [2]: 3.28 ± 0.13 h
total protein half-life in vivo [3]: 2.92 ± 0.14 h
total protein half-life in vivo [12]: 4.05 ± 0.47 h
total protein half-life in vivo [4]: 3.16 ± 0.091 h
total protein half-life in vivo [5]: 2.72 ± 0.065 h
total protein half-life in vivo [6]: 3.64 ± 0.58 h
total protein half-life in vivo [7]: 6 ± 0.41 h
total protein half-life in vivo [8]: 2.82 ± 0.2 h
total protein half-life in vivo [9]: 4.37 ± 1 h
total protein half-life in vivo [10]: 4.042 ± 0.031 h
total protein half-life in vivo [11]: 7.9 ± 0.83 h

MEKLRVGIVFGGKSAEHEVSLQSAKNIVDAIDKSRFDVVLLGIDKQGQWHVSDASNYLLNADDPAHIALRPSATSLAQVPGKHEHQLIDAQNGQPLPTVDVIFPIVHGTLGEDGSLQGMLRVANLPFVGSDVLASAACMDKDVTKRLLRDAGLNIAPFITLTRANRHNISFAEVESKLGLPLFVKPANQGSSVGVSKVTSEEQYAIAVDLAFEFDHKVIVEQGIKGREIECAVLGNDNPQASTCGEIVLTSDFYAYDTKYIDEDGAKVVVPAAIAPEINDKIRAIAVQAYQTLGCAGMARVDVFLTPENEVVINEINTLPGFTNISMYPKLWQASGLGYTDLITRLIELALERHAADNALKTTM [P0A6J8]
total protein half-life in vivo [1]: 4.83 ± 0.18 h
total protein half-life in vivo [2]: 5.65 ± 1.4 h
total protein half-life in vivo [3]: 4.95 ± 0.063 h
total protein half-life in vivo [12]: 6.41 ± 1.5 h
total protein half-life in vivo [4]: 4.9 ± 0.21 h
total protein half-life in vivo [5]: 2.99 ± 0.12 h
total protein half-life in vivo [7]: 10.5 ± 0.68 h
total protein half-life in vivo [8]: 4.89 ± 0.086 h
total protein half-life in vivo [9]: 8.61 ± 0.1 h
total protein half-life in vivo [10]: 5.56 ± 0.49 h
total protein half-life in vivo [11]: 11.5 ± 0.22 h

MEKNNEVIQTHPLVGWDISTVDSYDALMLRLHYQTPNKSEQEGTEVGQTLWLTTDVARQFISILEAGIAKIESGDFQVNEYRRH [P0AB33]
total protein half-life in vivo [1]: 4.09 h

MEKYLHLLSRGDKIGLTLIRLSIAIVFMWIGLLKFVPYEADSITPFVANSPLMSFFYEHPEDYKQYLTHEGEYKPEARAWQTANNTYGFSNGLGVVEVIIALLVLANPVNRWLGLLGGLMAFTTPLVTLSFLITTPEAWVPALGDAHHGFPYLSGAGRLVLKDTLMLAGAVMIMADSAREILKQRSNESSSTLKTEY
total protein half-life in vivo [4]: 5.11 h
total protein half-life in vivo [7]: 12.5 h
total protein half-life in vivo [9]: 6.8 h

MELIFLGTSAGVPTRTRNVTAILLNLQHPTQSGLWLFDCGEGTQHQLLHTAFNPGKLDKIFISHLHGDHLFGLPGLLCSRSMSGIIQPLTIYGPQGIREFVETALRISGSWTDYPLEIVEIGAGEILDDGLRKVTAYPLEHPLECYGYRIEEHDKPGALNAQALKAAGVPPGPLFQELKAGKTITLEDGRQINGADYLAAPVPGKALAIFGDTGPCDAALDLAKGVDVMVHEATLDITMEAKANSRGHSSTRQAATLAREAGVGKLIITHVSSRYDDKGCQHLLRECRSIFPATELANDFTVFNV [P0A8V0]
total protein half-life in vivo [1]: 4.1 ± 0.62 h
total protein half-life in vivo [2]: 5.44 ± 1 h
total protein half-life in vivo [3]: 4.51 ± 0.3 h
total protein half-life in vivo [12]: 5.43 ± 0.51 h
total protein half-life in vivo [4]: 3.918 ± 0.011 h
total protein half-life in vivo [5]: 3.01 ± 0.12 h
total protein half-life in vivo [6]: 5.64 ± 0.69 h
total protein half-life in vivo [7]: 10 ± 0.64 h
total protein half-life in vivo [8]: 3.93 ± 0.28 h
total protein half-life in vivo [9]: 7.42 ± 0.32 h
total protein half-life in vivo [10]: 5.54 ± 1.4 h
total protein half-life in vivo [11]: 11.3 ± 2.1 h

MELKDYYAIMGVKPTDDLKTIKTAYRRLARKYHPDVSKEPDAEARFKEVAEAWEVLSDEQRRAEYDQMWQHRNDPQFNRQFHHGDGQSFNAEDFDDIFSSIFGQHARQSRQRPATRGHDIEIEVAVFLEETLTEHKRTISYNLPVYNAFGMIEQEIPKTLNVKIPAGVGNGQRIRLKGQGTPGENGGPNGDLWLVIHIAPHPLFDIVGQDLEIVVPVSPWEAALGAKVTVPTLKESILLTIPPGSQAGQRLRVKGKGLVSKKQTGDLYAVLKIVMPPKPDENTAALWQQLADAQSSFDPRKDWGKA
total protein half-life in vivo [1]: 6.73 ± 1.4 h
total protein half-life in vivo [2]: 5.61 ± 0.13 h
total protein half-life in vivo [3]: 5.26 ± 0.1 h
total protein half-life in vivo [12]: 6.28 ± 0.45 h
total protein half-life in vivo [4]: 4.99 ± 0.26 h
total protein half-life in vivo [5]: 3.32 ± 0.26 h
total protein half-life in vivo [6]: 5.86 ± 1.2 h
total protein half-life in vivo [8]: 4.87 ± 0.37 h
total protein half-life in vivo [9]: 9.91 ± 2.2 h
total protein half-life in vivo [10]: 5.76 ± 0.35 h
total protein half-life in vivo [11]: 12.8 ± 0.6 h
